Where no end group is shown, it is not given here.
B1: HC-H20 (peptide)
peptide: ELCYFPGICWM
notes: phage clone, Library HC
B2: HC-H10 (peptide)
peptide: KTCYFPGICWM
notes: phage clone, Library HC
B3: HC-H17 (peptide)
peptide: EICYFPGICWM
notes: phage clone, Library HC
B4: HC-H3 (peptide)
peptide: DLCYFPGICWM
notes: phage clone, Library HC
B5: HC-H11 (peptide)
peptide: EVCYFPGICWF
notes: phage clone, Library HC
B6: HC-H19 (peptide)
peptide: EVCYFPGICWM
notes: phage clone, Library HC
B7: HC-H8 (peptide)
peptide: DVCYFPGICWM
notes: phage clone, Library HC
B8: HC-H14 (peptide)
peptide: ALCYFPGICWM
notes: phage clone, Library HC
B9: HB-H13 (peptide)
peptide: ELCYFPGICWT
B10: HC-H7 (peptide)
peptide: EMCYFPGICWS
notes: phage clone, Library HC
B11: HB-H12 (peptide)
peptide: EICYFPGICWI
B12: HC-H15 (peptide)
peptide: ELCYFPGICWP
notes: phage clone, Library HC
B13: HC-H5 (peptide)
peptide: KVCYFPGICWM
modifications: not fully specified (bridges); cysteine pairing not given here
notes: phage clone, Library HC
B14: HC-H9 (peptide)
peptide: EMCYFPGICWT
notes: phage clone, Library HC
B15: HC-H16 (peptide)
peptide: EVCYFPGICWE
notes: phage clone, Library HC
B16: HBC-H6 (peptide)
peptide: EHDMCYFPGICWIAD
notes: phage clone, Library HBC
B17: HBC-H2 (peptide)
peptide: SREVCYYPGICWNGA
notes: phage clone, Library HBC
B18: HBC-H4 (peptide)
peptide: GGEICYFPGICRVLP
notes: phage clone, Library HBC
B19: HBC-H10 (peptide)
peptide: VQEVCYFPGICWMQE
notes: phage clone, Library HBC
B20: HBC-H17 (peptide)
peptide: HAEICYFPGICWTER
notes: phage clone, Library HBC
B21: HBC-H3 (peptide)
peptide: GTEVCYFPGICWGGG
notes: phage clone, Library HBC
B22: HBC-H8 (peptide)
peptide: SYAPCYFPGICWMGN
notes: phage clone, Library HBC

Each binder was assayed against rat albumin (rat, UniProt P02770 25-608) (assay: phage ELISA).
Experimental: (§1) Phage ELISA—Phage clones (˜10¹¹ phage) were added to plates coated with rat, rabbit or human albumin. The microtiter plate was washed with wash buffer and bound phage were detected with HRP/Anti-M13 Conjugate. The amount of HRP bound was measured using ABTS/H₂O₂ substrate and monitoring the change at 405 nm.

Sequence of rat albumin (P02770 25-608 limits assumed): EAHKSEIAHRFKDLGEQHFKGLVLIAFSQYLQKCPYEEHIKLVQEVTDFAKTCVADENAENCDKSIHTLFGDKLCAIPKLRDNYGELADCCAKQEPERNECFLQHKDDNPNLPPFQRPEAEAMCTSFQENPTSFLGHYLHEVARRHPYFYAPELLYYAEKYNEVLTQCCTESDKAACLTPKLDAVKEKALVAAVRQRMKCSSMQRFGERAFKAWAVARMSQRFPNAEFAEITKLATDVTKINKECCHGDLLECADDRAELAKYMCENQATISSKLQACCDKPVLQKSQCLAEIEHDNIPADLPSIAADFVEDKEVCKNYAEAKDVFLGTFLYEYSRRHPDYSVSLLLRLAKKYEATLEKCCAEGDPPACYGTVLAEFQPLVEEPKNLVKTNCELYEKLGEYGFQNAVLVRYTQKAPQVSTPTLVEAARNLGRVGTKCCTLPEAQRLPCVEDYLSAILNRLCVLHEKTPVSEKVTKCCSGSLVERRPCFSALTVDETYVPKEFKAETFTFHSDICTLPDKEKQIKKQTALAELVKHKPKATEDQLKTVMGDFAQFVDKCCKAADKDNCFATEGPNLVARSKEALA

| Binder | binding result |
| --- | --- |
| B1 | no binding |
| B2 | no binding |
| B3 | no binding |
| B4 | no binding |
| B5 | no binding |
| B6 | no binding |
| B7 | no binding |
| B8 | no binding |
| B9 | no binding |
| B10 | no binding |
| B11 | no binding |
| B12 | no binding |
| B13 | no binding |
| B14 | no binding |
| B15 | no binding |
| B16 | no binding |
| B17 | no binding |
| B18 | no binding |
| B19 | no binding |
| B20 | no binding |
| B21 | no binding |
| B22 | no binding |

Each binder was assayed against rabbit albumin (rabbit, UniProt P49065 25-608) (assay: phage ELISA).
Experimental: as §1

Sequence of rabbit albumin (P49065 25-608 limits assumed): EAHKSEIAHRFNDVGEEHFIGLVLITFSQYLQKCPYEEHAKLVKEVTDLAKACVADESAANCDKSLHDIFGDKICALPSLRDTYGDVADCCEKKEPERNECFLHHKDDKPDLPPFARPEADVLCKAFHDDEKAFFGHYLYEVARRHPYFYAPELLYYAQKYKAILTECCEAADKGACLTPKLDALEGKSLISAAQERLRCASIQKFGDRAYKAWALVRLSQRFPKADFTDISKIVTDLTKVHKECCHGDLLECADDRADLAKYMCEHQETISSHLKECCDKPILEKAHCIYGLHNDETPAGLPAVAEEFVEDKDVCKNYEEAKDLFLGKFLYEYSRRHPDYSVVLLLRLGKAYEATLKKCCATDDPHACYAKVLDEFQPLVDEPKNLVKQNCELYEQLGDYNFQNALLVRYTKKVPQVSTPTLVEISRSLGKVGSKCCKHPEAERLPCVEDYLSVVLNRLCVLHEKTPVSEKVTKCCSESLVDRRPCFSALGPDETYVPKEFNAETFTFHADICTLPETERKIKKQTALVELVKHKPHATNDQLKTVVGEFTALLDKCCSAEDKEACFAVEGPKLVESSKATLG

| Binder | binding result |
| --- | --- |
| B1 | no binding |
| B2 | no binding |
| B3 | no binding |
| B4 | no binding |
| B5 | no binding |
| B6 | no binding |
| B7 | no binding |
| B8 | no binding |
| B9 | no binding |
| B10 | no binding |
| B11 | no binding |
| B12 | no binding |
| B13 | no binding |
| B14 | no binding |
| B15 | no binding |
| B16 | no binding |
| B17 | no binding |
| B18 | no binding |
| B19 | no binding |
| B20 | no binding |
| B21 | no binding |
| B22 | no binding |
